Experimental data: patent US20250084142A1 (INTARCIA THERAPEUTICS, published 2025)
Starred links: 1 amine or outer side, 2 acyl side, 3 side chain; linkers in the order of their positions; H or OH if unused. Non-standard residues stand in square brackets, D forms with d. Groups on a side chain read outwards from the residue. No end group written: not given here. *: point of attachment. C20 diacid = O=C(O)CCCCCCCCCCCCCCCCCCC(=O)*; Phe(4-Me) = Cc1ccc(C[C@H](N)C(=O)O)cc1; γGlu = O=C(O)[C@H](CCC(=O)[*:2])N[*:1]

T1: NPY5R
T1 sequence (Q15761 1-445, species assumed, looked up): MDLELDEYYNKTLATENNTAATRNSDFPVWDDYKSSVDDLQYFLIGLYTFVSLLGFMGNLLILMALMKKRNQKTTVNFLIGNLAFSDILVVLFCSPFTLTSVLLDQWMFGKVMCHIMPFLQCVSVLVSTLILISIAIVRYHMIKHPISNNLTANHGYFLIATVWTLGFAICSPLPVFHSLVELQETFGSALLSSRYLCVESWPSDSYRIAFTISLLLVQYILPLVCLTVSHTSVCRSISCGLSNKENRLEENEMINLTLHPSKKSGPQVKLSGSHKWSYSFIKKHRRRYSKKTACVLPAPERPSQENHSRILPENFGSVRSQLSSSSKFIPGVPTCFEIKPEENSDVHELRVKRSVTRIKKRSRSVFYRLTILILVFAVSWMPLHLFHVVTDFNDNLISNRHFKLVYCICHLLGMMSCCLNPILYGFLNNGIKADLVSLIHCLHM

T2: NPY2R
T2 sequence (P49146 1-381, species assumed, looked up): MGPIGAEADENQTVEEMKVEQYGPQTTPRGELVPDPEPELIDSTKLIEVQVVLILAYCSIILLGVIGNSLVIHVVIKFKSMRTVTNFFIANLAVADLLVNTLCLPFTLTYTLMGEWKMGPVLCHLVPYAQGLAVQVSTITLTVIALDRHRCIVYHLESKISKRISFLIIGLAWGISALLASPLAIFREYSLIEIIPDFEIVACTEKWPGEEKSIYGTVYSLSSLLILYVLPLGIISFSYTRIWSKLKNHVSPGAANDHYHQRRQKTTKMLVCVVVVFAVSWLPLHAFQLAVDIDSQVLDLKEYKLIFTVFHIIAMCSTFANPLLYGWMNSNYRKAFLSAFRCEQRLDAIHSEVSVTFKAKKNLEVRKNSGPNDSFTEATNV

B1: Compound A55 (peptide)
peptide: PKPEAPGKDASPEEWK([γGlu-γGlu-C20 diacid])RYYADLRHYLNWLTRQRF-NH2
modifications: N-terminus assumed
SMILES: CC(C)C[C@H](NC(=O)[C@H](CC(=O)O)NC(=O)[C@H](C)NC(=O)[C@H](Cc1ccc(O)cc1)NC(=O)[C@H](Cc1ccc(O)cc1)NC(=O)[C@H](CCCNC(=N)N)NC(=O)[C@H](CCCCNC(=O)CC[C@H](NC(=O)CC[C@H](NC(=O)CCCCCCCCCCCCCCCCCCC(=O)O)C(=O)O)C(=O)O)NC(=O)[C@H](Cc1c[nH]c2ccccc12)NC(=O)[C@H](CCC(=O)O)NC(=O)[C@H](CCC(=O)O)NC(=O)[C@@H]1CCCN1C(=O)[C@H](CO)NC(=O)[C@H](C)NC(=O)[C@H](CC(=O)O)NC(=O)[C@H](CCCCN)NC(=O)CNC(=O)[C@@H]1CCCN1C(=O)[C@H](C)NC(=O)[C@H](CCC(=O)O)NC(=O)[C@@H]1CCCN1C(=O)[C@H](CCCCN)NC(=O)[C@@H]1CCCN1)C(=O)N[C@@H](CCCNC(=N)N)C(=O)N[C@@H](Cc1c[nH]cn1)C(=O)N[C@@H](Cc1ccc(O)cc1)C(=O)N[C@@H](CC(C)C)C(=O)N[C@@H](CC(N)=O)C(=O)N[C@@H](Cc1c[nH]c2ccccc12)C(=O)N[C@@H](CC(C)C)C(=O)N[C@H](C(=O)N[C@@H](CCCNC(=N)N)C(=O)N[C@@H](CCC(N)=O)C(=O)N[C@@H](CCCNC(=N)N)C(=O)N[C@@H](Cc1ccccc1)C(N)=O)[C@@H](C)O
B2: Compound A51 (peptide)
peptide: PKPEAPGKDASPEEWNRYYADLRHYLK([γGlu-γGlu-C20 diacid])WLTRQRF-NH2
modifications: N-terminus assumed
SMILES: CC(C)C[C@H](NC(=O)[C@H](CC(=O)O)NC(=O)[C@H](C)NC(=O)[C@H](Cc1ccc(O)cc1)NC(=O)[C@H](Cc1ccc(O)cc1)NC(=O)[C@H](CCCNC(=N)N)NC(=O)[C@H](CC(N)=O)NC(=O)[C@H](Cc1c[nH]c2ccccc12)NC(=O)[C@H](CCC(=O)O)NC(=O)[C@H](CCC(=O)O)NC(=O)[C@@H]1CCCN1C(=O)[C@H](CO)NC(=O)[C@H](C)NC(=O)[C@H](CC(=O)O)NC(=O)[C@H](CCCCN)NC(=O)CNC(=O)[C@@H]1CCCN1C(=O)[C@H](C)NC(=O)[C@H](CCC(=O)O)NC(=O)[C@@H]1CCCN1C(=O)[C@H](CCCCN)NC(=O)[C@@H]1CCCN1)C(=O)N[C@@H](CCCNC(=N)N)C(=O)N[C@@H](Cc1c[nH]cn1)C(=O)N[C@@H](Cc1ccc(O)cc1)C(=O)N[C@@H](CC(C)C)C(=O)N[C@@H](CCCCNC(=O)CC[C@H](NC(=O)CC[C@H](NC(=O)CCCCCCCCCCCCCCCCCCC(=O)O)C(=O)O)C(=O)O)C(=O)N[C@@H](Cc1c[nH]c2ccccc12)C(=O)N[C@@H](CC(C)C)C(=O)N[C@H](C(=O)N[C@@H](CCCNC(=N)N)C(=O)N[C@@H](CCC(N)=O)C(=O)N[C@@H](CCCNC(=N)N)C(=O)N[C@@H](Cc1ccccc1)C(N)=O)[C@@H](C)O
B3: Compound A54 (peptide)
peptide: PKPEAPGKDASPEEWNRYYK([γGlu-γGlu-C20 diacid])DLRHYLNWLTRQRF-NH2
modifications: N-terminus assumed
SMILES: CC(C)C[C@H](NC(=O)[C@H](CC(=O)O)NC(=O)[C@H](CCCCNC(=O)CC[C@H](NC(=O)CC[C@H](NC(=O)CCCCCCCCCCCCCCCCCCC(=O)O)C(=O)O)C(=O)O)NC(=O)[C@H](Cc1ccc(O)cc1)NC(=O)[C@H](Cc1ccc(O)cc1)NC(=O)[C@H](CCCNC(=N)N)NC(=O)[C@H](CC(N)=O)NC(=O)[C@H](Cc1c[nH]c2ccccc12)NC(=O)[C@H](CCC(=O)O)NC(=O)[C@H](CCC(=O)O)NC(=O)[C@@H]1CCCN1C(=O)[C@H](CO)NC(=O)[C@H](C)NC(=O)[C@H](CC(=O)O)NC(=O)[C@H](CCCCN)NC(=O)CNC(=O)[C@@H]1CCCN1C(=O)[C@H](C)NC(=O)[C@H](CCC(=O)O)NC(=O)[C@@H]1CCCN1C(=O)[C@H](CCCCN)NC(=O)[C@@H]1CCCN1)C(=O)N[C@@H](CCCNC(=N)N)C(=O)N[C@@H](Cc1c[nH]cn1)C(=O)N[C@@H](Cc1ccc(O)cc1)C(=O)N[C@@H](CC(C)C)C(=O)N[C@@H](CC(N)=O)C(=O)N[C@@H](Cc1c[nH]c2ccccc12)C(=O)N[C@@H](CC(C)C)C(=O)N[C@H](C(=O)N[C@@H](CCCNC(=N)N)C(=O)N[C@@H](CCC(N)=O)C(=O)N[C@@H](CCCNC(=N)N)C(=O)N[C@@H](Cc1ccccc1)C(N)=O)[C@@H](C)O
B4: Compound A53 (peptide)
peptide: PKPEAPGKDASPEEWNRYYADLK([γGlu-γGlu-C20 diacid])HYLNWLTRQRF-NH2
modifications: N-terminus assumed
SMILES: CC(C)C[C@H](NC(=O)[C@H](CC(=O)O)NC(=O)[C@H](C)NC(=O)[C@H](Cc1ccc(O)cc1)NC(=O)[C@H](Cc1ccc(O)cc1)NC(=O)[C@H](CCCNC(=N)N)NC(=O)[C@H](CC(N)=O)NC(=O)[C@H](Cc1c[nH]c2ccccc12)NC(=O)[C@H](CCC(=O)O)NC(=O)[C@H](CCC(=O)O)NC(=O)[C@@H]1CCCN1C(=O)[C@H](CO)NC(=O)[C@H](C)NC(=O)[C@H](CC(=O)O)NC(=O)[C@H](CCCCN)NC(=O)CNC(=O)[C@@H]1CCCN1C(=O)[C@H](C)NC(=O)[C@H](CCC(=O)O)NC(=O)[C@@H]1CCCN1C(=O)[C@H](CCCCN)NC(=O)[C@@H]1CCCN1)C(=O)N[C@@H](CCCCNC(=O)CC[C@H](NC(=O)CC[C@H](NC(=O)CCCCCCCCCCCCCCCCCCC(=O)O)C(=O)O)C(=O)O)C(=O)N[C@@H](Cc1c[nH]cn1)C(=O)N[C@@H](Cc1ccc(O)cc1)C(=O)N[C@@H](CC(C)C)C(=O)N[C@@H](CC(N)=O)C(=O)N[C@@H](Cc1c[nH]c2ccccc12)C(=O)N[C@@H](CC(C)C)C(=O)N[C@H](C(=O)N[C@@H](CCCNC(=N)N)C(=O)N[C@@H](CCC(N)=O)C(=O)N[C@@H](CCCNC(=N)N)C(=O)N[C@@H](Cc1ccccc1)C(N)=O)[C@@H](C)O
B5: Compound A50 (peptide)
peptide: PKPEAPGKDASPEEWNRYYADLRHYLNWLTRK([γGlu-γGlu-C20 diacid])RF-NH2
modifications: N-terminus assumed
SMILES: CC(C)C[C@H](NC(=O)[C@H](CC(=O)O)NC(=O)[C@H](C)NC(=O)[C@H](Cc1ccc(O)cc1)NC(=O)[C@H](Cc1ccc(O)cc1)NC(=O)[C@H](CCCNC(=N)N)NC(=O)[C@H](CC(N)=O)NC(=O)[C@H](Cc1c[nH]c2ccccc12)NC(=O)[C@H](CCC(=O)O)NC(=O)[C@H](CCC(=O)O)NC(=O)[C@@H]1CCCN1C(=O)[C@H](CO)NC(=O)[C@H](C)NC(=O)[C@H](CC(=O)O)NC(=O)[C@H](CCCCN)NC(=O)CNC(=O)[C@@H]1CCCN1C(=O)[C@H](C)NC(=O)[C@H](CCC(=O)O)NC(=O)[C@@H]1CCCN1C(=O)[C@H](CCCCN)NC(=O)[C@@H]1CCCN1)C(=O)N[C@@H](CCCNC(=N)N)C(=O)N[C@@H](Cc1c[nH]cn1)C(=O)N[C@@H](Cc1ccc(O)cc1)C(=O)N[C@@H](CC(C)C)C(=O)N[C@@H](CC(N)=O)C(=O)N[C@@H](Cc1c[nH]c2ccccc12)C(=O)N[C@@H](CC(C)C)C(=O)N[C@H](C(=O)N[C@@H](CCCNC(=N)N)C(=O)N[C@@H](CCCCNC(=O)CC[C@H](NC(=O)CC[C@H](NC(=O)CCCCCCCCCCCCCCCCCCC(=O)O)C(=O)O)C(=O)O)C(=O)N[C@@H](CCCNC(=N)N)C(=O)N[C@@H](Cc1ccccc1)C(N)=O)[C@@H](C)O
B6: Compound A52 (peptide)
peptide: PKPEAPGKDASPEEWNRYYADLRHK([γGlu-γGlu-C20 diacid])LNWLTRQRF-NH2
modifications: N-terminus assumed
SMILES: CC(C)C[C@H](NC(=O)[C@H](CC(=O)O)NC(=O)[C@H](C)NC(=O)[C@H](Cc1ccc(O)cc1)NC(=O)[C@H](Cc1ccc(O)cc1)NC(=O)[C@H](CCCNC(=N)N)NC(=O)[C@H](CC(N)=O)NC(=O)[C@H](Cc1c[nH]c2ccccc12)NC(=O)[C@H](CCC(=O)O)NC(=O)[C@H](CCC(=O)O)NC(=O)[C@@H]1CCCN1C(=O)[C@H](CO)NC(=O)[C@H](C)NC(=O)[C@H](CC(=O)O)NC(=O)[C@H](CCCCN)NC(=O)CNC(=O)[C@@H]1CCCN1C(=O)[C@H](C)NC(=O)[C@H](CCC(=O)O)NC(=O)[C@@H]1CCCN1C(=O)[C@H](CCCCN)NC(=O)[C@@H]1CCCN1)C(=O)N[C@@H](CCCNC(=N)N)C(=O)N[C@@H](Cc1c[nH]cn1)C(=O)N[C@@H](CCCCNC(=O)CC[C@H](NC(=O)CC[C@H](NC(=O)CCCCCCCCCCCCCCCCCCC(=O)O)C(=O)O)C(=O)O)C(=O)N[C@@H](CC(C)C)C(=O)N[C@@H](CC(N)=O)C(=O)N[C@@H](Cc1c[nH]c2ccccc12)C(=O)N[C@@H](CC(C)C)C(=O)N[C@H](C(=O)N[C@@H](CCCNC(=N)N)C(=O)N[C@@H](CCC(N)=O)C(=O)N[C@@H](CCCNC(=N)N)C(=O)N[C@@H](Cc1ccccc1)C(N)=O)[C@@H](C)O

target: T1, NPY5R; test: cell-based or functional assay

| NPY5R pEC50 | Binder |
| --- | --- |
| 7.7 -Log(EC50, M) | B1 |
| 6 -Log(EC50, M) | B2 |
| 8 -Log(EC50, M) | B3 |
| 7.3 -Log(EC50, M) | B4 |
| 6 -Log(EC50, M) | B5 |
| 8 -Log(EC50, M) | B6 |
| 8.8 -Log(EC50, M) | PKPEAPGK([γGlu-γGlu-C20 diacid])DASPEEWNRYYADLRHYLNWLTRQR[Phe(4-Me)]-NH2 [Compound A58] |

target: T2, NPY2R; test: cell-based or functional assay

| NPY2R pEC50 | Binder |
| --- | --- |
| 8.9 -Log(EC50, M) | B1 |
| 6 -Log(EC50, M) | B2 |
| 7.7 -Log(EC50, M) | B3 |
| 8.7 -Log(EC50, M) | B4 |
| 6 -Log(EC50, M) | B5 |
| 8.4 -Log(EC50, M) | B6 |
| 10.3 -Log(EC50, M) | PKPEAPGK([γGlu-γGlu-C20 diacid])DASPEEWNRYYADLRHYLNWLTRQR[Phe(4-Me)]-NH2 [Compound A58] |
